Assay results as given in US20230073274A1 (NOVELMED THERAPEUTICS, published 2023).
Positions count from the first letter of the chain named. Values belong to the binder of their own block, whether it stands above or below them.

Assays:
human properdin [1] = target: T1, human properdin (human, UniProt P27918 28-469); test: cell-based or functional assay
human properdin [2] = target: T1, human properdin; test: cell-based or functional assay; remark: listed apart in the source
human properdin [3] = target: T1, human properdin; test: cell-based or functional assay; remark: listed apart in the source
human properdin [4] = target: T1, human properdin; test: cell-based or functional assay; remark: listed apart in the source
human properdin [5] = target: T1, human properdin; test: ELISA, human properdin coated on plate
Protocol: (§1) Polystyrene microtiter plates were coated with human (2.0 μg/50 μl per well) properdin in phosphate buffered saline (PBS) overnight at 4° C. After aspirating the properdin solution, the wells were blocked with PBS containing 1% bovine serum albumin (BSA) (Sigma-Aldrich, St. Louis, Mo.) for 2 hours at room temperature. Wells without peptide or properdin coating served as background controls. Aliquots of the test antibody in blocking solution were added to the properdin coated wells and allowed to incubate for 1 hour to allow binding to occur. Following a 1 hour incubation at room temperature, the plate was rinsed with PBS five times and incubated with 1:2000 diluted anti-properdin polyclonal antibody.

human properdin [6] = target: T1, human properdin; test: ELISA, human properdin coated on the plate, OD 450 nm
Protocol: as §1

human properdin [7] = target: T1, human properdin; test: cell-based or functional assay; remark: listed apart in the source
human properdin [8] = target: T1, human properdin; test: ELISA, properdin coated on the plate, OD 450 nm

T1 sequence (P27918 28-469 limits assumed): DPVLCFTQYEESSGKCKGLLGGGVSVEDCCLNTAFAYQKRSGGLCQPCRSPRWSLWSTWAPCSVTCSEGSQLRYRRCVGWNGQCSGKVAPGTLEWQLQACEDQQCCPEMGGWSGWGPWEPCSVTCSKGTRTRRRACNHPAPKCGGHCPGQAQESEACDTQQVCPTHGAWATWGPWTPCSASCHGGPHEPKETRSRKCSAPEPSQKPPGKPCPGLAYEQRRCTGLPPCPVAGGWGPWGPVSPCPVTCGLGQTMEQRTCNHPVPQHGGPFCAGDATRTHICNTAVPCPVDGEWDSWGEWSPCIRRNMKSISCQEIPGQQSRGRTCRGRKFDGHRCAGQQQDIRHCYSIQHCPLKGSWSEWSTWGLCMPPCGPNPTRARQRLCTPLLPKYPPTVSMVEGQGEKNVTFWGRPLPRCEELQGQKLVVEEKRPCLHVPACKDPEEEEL

MAC (µg/Ml); inhibition of MAC formation (human properdin [1]): 1 µg/mL
Properdin (µg/mL); inhibition of properdin deposition (human properdin [1]): 2 µg/mL
IC50 (read off the curve): properdin deposition (AP activation on LPS, 10% normal human serum) (human properdin [2]): ~0.8 µg/mL
IC50 (read off the curve): C3b deposition (AP activation on LPS, normal human serum) (human properdin [3]): ~0.5 µg/mL
IC50 (read off the curve): properdin deposition (AP C3 convertase formation assay) (human properdin [4]): ~0.4 µg/mL
Binding Affinity (human properdin [5]): 270 pM
EC50 (read off the curve) (human properdin [6]): 0.2 to 0.3 nM
B1: NMT15 (antibody, V domains shown)
VH: QVQLVQSAPEVAKPGTSVKMSCKASGYIFTNYPIHWVKQAPGQGLEWIGFIDPGGGYDEPDERFRDRATLTADKSTSTAYMELSSLRSEDTAIYYCARRGGGYYLDYWGQGTLVTVSS
VL: DIQMTQSPSSLSASLGDRVTITCRASQDISFFLNWYQQKPDGTVKLLIYYTSRYHSGVPSRFSGSGSGTDFTLTISSLQPEDFATYFCQHGNTLPWTFGQGTKLEIK

IC50 (read off the curve): C3b deposition (sheet title: LPS C3b 10% NHS) (human properdin [7]): ~0.7 µg/mL
EC50 (read off the curve) (human properdin [8]): ~0.06 nM
B2: NMT31 (antibody, V domains shown)
VH: EVTLKESGPTLVKPTQTLTLTCTFSGFSLSTSGMGVGWIRQPPGKALEWLAHIWWDDVKSYNPALKSRLTITKDTSKNQVVLTMTNMDPVDTATYYCARIGDGYYSFDYWGQGTTVTVSS
VL: DIQMTQSPSSLSASVGDRVTITCRASQDVSDAVAWFQQKPGKAPKLLIYSPSYRYTGVPSRFSGSGSGTDFTFTISSLQPEDLATYYCQQHYSTPWTFGQGTKLEIK

IC50 (read off the curve): C3b deposition (sheet title: LPS C3b 10% NHS) (human properdin [7]): ~0.4 µg/mL
EC50 (read off the curve) (human properdin [8]): ~0.04 nM
B3: NMT30 (antibody, V domains shown)
VH: B2 VH with M84I, M87V, V116L
VL: B2 VL with L83F

IC50 (read off the curve): C3b deposition (sheet title: LPS C3b 10% NHS) (human properdin [7]): ~0.9 µg/mL
EC50 (read off the curve) (human properdin [8]): ~0.05 nM
B4: NMT29 (antibody, V domains shown)
VH: B2 VH
VL: B2 VL with F36Y, F73L, L83F
